{"source": "patent US12233115B2", "about": "“Long-acting parathyroid hormone” (Extend Biosciences, Inc., priority 2022, dated 2025)", "key": {"DBP": {"target": "T1, DBP (Homo sapiens, UniProt P02774)", "T1 sequence (P02774 17-474)": "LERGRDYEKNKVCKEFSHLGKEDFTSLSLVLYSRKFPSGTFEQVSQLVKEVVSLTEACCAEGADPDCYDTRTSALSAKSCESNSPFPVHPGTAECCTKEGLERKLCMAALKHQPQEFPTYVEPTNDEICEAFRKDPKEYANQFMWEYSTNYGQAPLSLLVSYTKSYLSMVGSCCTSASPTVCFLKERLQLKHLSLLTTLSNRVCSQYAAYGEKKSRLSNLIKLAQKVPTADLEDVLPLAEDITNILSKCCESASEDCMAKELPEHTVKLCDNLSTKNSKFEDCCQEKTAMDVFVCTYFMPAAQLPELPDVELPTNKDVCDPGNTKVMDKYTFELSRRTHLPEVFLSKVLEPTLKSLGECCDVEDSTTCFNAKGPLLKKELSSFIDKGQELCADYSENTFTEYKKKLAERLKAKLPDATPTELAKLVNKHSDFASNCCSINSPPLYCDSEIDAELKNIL", "settings": "Norman et al. 2001, p. 51; cited from earlier work"}, "VDRnuc": {"tested_on": "VDRnuc", "settings": "Norman et al. 2001, p. 51; cited from earlier work"}, "Solubility in PBS (A280)": {"assay": "Solubility in PBS (A280)", "assay_type": "physicochemical", "description": "PEG Length and Counterion Affects Solubility: The solubility of the acetate and carbonate salt form of each compound was determined as follows. For EXT611, EXT606, and EXT608, phosphate buffered saline (PBS) was added to each compound to form a saturated solution. Undissolved compound was removed by centrifugation. The concentration of dissolved compound was determined by measuring the absorbance at 280 nm using an extinction coefficient of 18,600 M^−1 cm^−1. For EXT615, EXT616, and EXT617, solubility was limited practically by the high viscosity imparted by the large PEG moieties. Highly viscous drug formulations are difficult to manipulate and require large needle bore sizes that cause increased injection site pain. PBS was added to EXT615, EXT616, and EXT617 incrementally until a solution was obtained that could be successfully pipetted through a pipet tip with a bore of approximately 1 mm diameter (enlarged by removing the end with a razor blade). The concentration of dissolved compound was determined by measuring the absorbance at 280 nm using an extinction coefficient of 18,600 M^−1 cm^−1. […] For EXT608, the acetate salt was 17.6-fold more soluble than the carbonate salt."}, "[1]": {"settings": "human, in vivo, cited from earlier work"}}, "note": "Where two headings read alike, the source gives them in different places.", "data": [{"compound": "25-hydroxyvitamin D [25(OH)D3]", "values": [{"measurement": "fold tighter binding to DBP than 1α,25(OH)2D3", "setting": "DBP", "value": 668, "unit": "fold"}]}, {"compound": "C=C1/C(=C\\C=C2/CCC[C@]3(C)[C@@H]([C@H](C)CCCC(C)(C)O)CC[C@@H]23)C[C@@H](O)C[C@@H]1O", "note": "[1α,25(OH)2D3, 1,25-dihydroxyvitamin D3]", "values": [{"measurement": "fold tighter binding to VDRnuc than 25(OH)D3", "setting": "VDRnuc", "value": 668, "unit": "fold"}]}, {"compound": "C=C1CC[C@H](OCCCNC(=O)CCOCCOCCOCCOCCOCCOCCOCCOCCOCCOCCOCCOCCOCCOCCOCCOCCOCCOCCOCCOCCOCCOCCOCCOCCNC(=O)CCN2C(=O)CC(SC[C@H](NC(=O)[C@H](Cc3ccccc3)NC(=O)[C@H](CC(N)=O)NC(=O)[C@H](Cc3c[nH]cn3)NC(=O)[C@@H](NC(=O)[C@H](CC(=O)O)NC(=O)[C@H](CCC(N)=O)NC(=O)[C@H](CC(C)C)NC(=O)[C@H](CCCCN)NC(=O)[C@H](CCCCN)NC(=O)[C@H](CCCNC(=N)N)NC(=O)[C@H](CC(C)C)NC(=O)[C@H](Cc3c[nH]c4ccccc34)NC(=O)[C@H](CCC(=O)O)NC(=O)[C@@H](NC(=O)[C@H](CCCNC(=N)N)NC(=O)[C@H](CCC(=O)O)NC(=O)[C@H](CCSC)NC(=O)[C@H](CO)NC(=O)[C@H](CC(N)=O)NC(=O)[C@H](CC(C)C)NC(=O)[C@H](Cc3c[nH]cn3)NC(=O)[C@H](CCCCN)NC(=O)CNC(=O)[C@H](CC(C)C)NC(=O)[C@H](CC(N)=O)NC(=O)[C@H](Cc3c[nH]cn3)NC(=O)[C@H](CCSC)NC(=O)[C@H](CC(C)C)NC(=O)[C@H](CCC(N)=O)NC(=O)[C@@H](NC(=O)[C@H](CCC(=O)O)NC(=O)[C@H](CO)NC(=O)[C@@H](NC(=O)[C@@H](N)CO)C(C)C)[C@@H](C)CC)C(C)C)C(C)C)C(N)=O)C2=O)C/C1=C/C=C1\\CCC[C@]2(C)[C@@H]([C@H](C)CCCC(C)(C)O)CC[C@@H]12", "note": "(some centres unmarked) [EXT606]", "values": [{"measurement": "solubility", "setting": "Solubility in PBS (A280); acetate salt, read-out: Solubility as Acetate", "value": 907, "unit": "µM"}, {"measurement": "solubility", "setting": "Solubility in PBS (A280); carbonate salt, read-out: Solubility as Carbonate", "value": 200, "unit": "µM"}]}, {"compound": "PTH: Parathyroid hormone, polypeptide containing 84 amino acids (SEQ ID NO:2); literature half-life values", "values": [{"measurement": "plasma half-life", "setting": "[1]; iv", "value": "less than 15 minutes"}, {"measurement": "serum half-life", "setting": "[1]; iv", "value": "approximately 5 minutes"}, {"measurement": "apparent half-life", "setting": "[1]; sc", "value": "1.5 to 2.5", "unit": "h"}, {"measurement": "plasma half-life (estimated)", "setting": "[1]; sc", "value": "2 to 3", "unit": "h"}]}]}
